Assay results: patent publication EP4814014A1, “BINDING MOLECULE AND ANTIBODY-DRUG CONJUGATE AND USE THEREOF” (priority 2023, dated 2025)

How the values were obtained:
[1] = target: T1, human EGFR-his (ECD, Met1-Ser645) (human, UniProt P00533 25-645); test: SPR, antigen amine-coupled on GLM chip, antibody injected, 1:1 model
T1 construct: range 1-645; Bought; range as printed includes Met1

[2] = target: T2, cynomolgus monkey EGFR-his (ECD, Met1-Ser645) (cynomolgus monkey, UniProt A0A2K5WK39 1-645); test: as above
T2 construct: range 1-645; Bought; range as printed includes Met1

[3] = target: T3, cynomolgus monkey cMet-his (ECD, Met1-Thr932) (cynomolgus monkey, UniProt A0A2K5UM36 25-932); test: as above
T3 construct: Bought; range as printed includes Met1

[4] = target: T4, human cMet-his (ECD, Met1-Thr932) (human, UniProt P08581 25-932); test: as above
T4 construct: Bought; range as printed includes Met1

human EGFR on cells = target: T5, human EGFR on cells (human, UniProt P00533 25-1210); test: FACS, VHH-His on MDA-MB-468 cells
T5 construct: whole, on cells; the cell line is named under assay; also called CHO-S-EGFR; CHOK1-huEGFR

T3 sequence (A0A2K5UM36 entry or part of it limits assumed, form in doubt): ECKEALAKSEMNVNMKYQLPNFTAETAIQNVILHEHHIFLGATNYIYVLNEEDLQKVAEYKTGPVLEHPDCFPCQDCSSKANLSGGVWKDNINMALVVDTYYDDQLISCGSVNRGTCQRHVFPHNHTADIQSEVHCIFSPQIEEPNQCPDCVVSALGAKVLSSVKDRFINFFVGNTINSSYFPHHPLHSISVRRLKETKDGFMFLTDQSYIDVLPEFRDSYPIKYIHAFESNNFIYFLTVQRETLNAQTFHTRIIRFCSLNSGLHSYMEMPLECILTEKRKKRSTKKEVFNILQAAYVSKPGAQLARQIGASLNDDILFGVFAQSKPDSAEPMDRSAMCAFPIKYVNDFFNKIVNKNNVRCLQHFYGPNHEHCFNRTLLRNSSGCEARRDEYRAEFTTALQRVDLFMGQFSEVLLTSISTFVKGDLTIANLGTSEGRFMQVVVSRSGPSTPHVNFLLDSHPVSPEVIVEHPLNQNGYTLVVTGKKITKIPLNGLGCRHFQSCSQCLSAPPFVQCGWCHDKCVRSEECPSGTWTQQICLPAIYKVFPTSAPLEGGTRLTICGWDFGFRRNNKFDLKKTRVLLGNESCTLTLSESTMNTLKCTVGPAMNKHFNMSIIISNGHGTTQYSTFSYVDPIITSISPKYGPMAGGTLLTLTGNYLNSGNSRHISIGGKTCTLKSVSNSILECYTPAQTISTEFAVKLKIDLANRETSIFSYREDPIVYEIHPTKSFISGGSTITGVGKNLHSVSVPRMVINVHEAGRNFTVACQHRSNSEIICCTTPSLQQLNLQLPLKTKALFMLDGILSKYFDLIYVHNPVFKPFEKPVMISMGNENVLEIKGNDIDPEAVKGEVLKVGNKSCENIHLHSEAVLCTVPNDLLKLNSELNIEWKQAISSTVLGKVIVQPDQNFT
T4 sequence (P08581 25-932): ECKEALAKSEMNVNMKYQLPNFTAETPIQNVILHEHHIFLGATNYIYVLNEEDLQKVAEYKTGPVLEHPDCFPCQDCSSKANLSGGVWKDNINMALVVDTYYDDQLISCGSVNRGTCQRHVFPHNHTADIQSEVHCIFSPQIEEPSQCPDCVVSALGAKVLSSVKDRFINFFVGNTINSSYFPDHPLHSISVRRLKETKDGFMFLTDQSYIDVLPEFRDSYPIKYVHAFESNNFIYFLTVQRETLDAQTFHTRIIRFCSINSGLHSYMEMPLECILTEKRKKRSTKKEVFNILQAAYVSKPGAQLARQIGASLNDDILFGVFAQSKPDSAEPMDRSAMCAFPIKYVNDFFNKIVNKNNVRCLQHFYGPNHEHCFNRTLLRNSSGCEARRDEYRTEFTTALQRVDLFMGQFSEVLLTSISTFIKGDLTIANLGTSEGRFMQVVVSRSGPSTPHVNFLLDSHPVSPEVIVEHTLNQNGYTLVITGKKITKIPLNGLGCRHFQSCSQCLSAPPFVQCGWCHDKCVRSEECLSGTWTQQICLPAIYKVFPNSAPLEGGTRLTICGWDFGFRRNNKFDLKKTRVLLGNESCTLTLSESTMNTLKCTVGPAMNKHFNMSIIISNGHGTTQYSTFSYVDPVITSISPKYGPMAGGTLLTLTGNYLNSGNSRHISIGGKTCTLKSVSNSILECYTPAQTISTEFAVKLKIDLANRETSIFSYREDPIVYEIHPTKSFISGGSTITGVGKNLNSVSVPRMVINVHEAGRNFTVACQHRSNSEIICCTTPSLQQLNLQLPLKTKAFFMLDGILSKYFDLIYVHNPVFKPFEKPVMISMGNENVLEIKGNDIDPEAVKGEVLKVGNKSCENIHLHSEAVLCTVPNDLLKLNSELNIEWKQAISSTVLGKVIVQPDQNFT

B1: V-1 (5B10-9A2-7A12) (bispecific antibody)
chain: AVQLVDSGGGLVQPGGSLRLDCSASGTIIGTYTMAWYRQAPGKQREMVAIITPGGGSHHADSVKGRFTISRDNGKSTVYLQMSSLKFEDTAVYYCNAKARWGTTEYWGQGTQVTVSSGGGGSQSQLAESGGGLVQSGGSLGLSCVASGFTISRSIMSWYRQPPGKERDWVASIGSAGNTNYVDSVKGRFTISRDVAKNTVYLQMNSLKPEDTAVYYCKTTLAVSFSEYWGQGTQVTVSSGGGGSGGGGSEVQLVESGGGLVQAGGSLRLSCVASGNIFSSNHMGWFRQAPGKQREFIAYITTREITNYADSVKGRFTISRDNTKNTVYLQMNVLKPEDTAVYYCIADQSREIRRSWGQGTQVTVSS
notes: Single-chain trispecific anti-EGFR/cMet antibody
With B1 the Kd [1] was 31.7 nM, the koff [1] was 0.00354 s⁻¹ and the kon [1] was 112000 M⁻¹ s⁻¹. For the same binder, the Kd [2] was 27.8 nM, the koff [2] was 0.00206 s⁻¹ and the kon [2] was 74100 M⁻¹ s⁻¹. The Kd [3] was 6.43 nM, the koff [3] was 0.000855 s⁻¹ and the kon [3] was 133000 M⁻¹ s⁻¹. For the same binder, the Kd [4] was 9.81 nM, the koff [4] was 0.00132 s⁻¹ and the kon [4] was 135000 M⁻¹ s⁻¹.

B2: V-9 (9B8-7A12-9A2) (bispecific antibody)
chain: QVQLVESGGGLVQPGGSLRLSCAASGLTFSYYAMAWFRQAPGKEREFVAAINWNGGNTYNTDSVKGRFTISRDNAKNTVYLQMNSLKPEDTAVYYCAVRYNSASYLVARSSDYNYWGQGTLVTVSSGGGGSEVQLVESGGGLVQAGGSLRLSCVASGNIFSSNHMGWFRQAPGKQREFIAYITTREITNYADSVKGRFTISRDNTKNTVYLQMNVLKPEDTAVYYCIADQSREIRRSWGQGTQVTVSSGGGGSGGGGSQSQLAESGGGLVQSGGSLGLSCVASGFTISRSIMSWYRQPPGKERDWVASIGSAGNTNYVDSVKGRFTISRDVAKNTVYLQMNSLKPEDTAVYYCKTTLAVSFSEYWGQGTQVTVSS
notes: as for B1
Binder B2 has a Kd [1] of 0.0027 nM, a koff [1] of 2.35e-07 s⁻¹ and a kon [1] of 86900 M⁻¹ s⁻¹. The Kd [2] was 0.0255 nM, the koff [2] was 1.95e-06 s⁻¹ and the kon [2] was 76400 M⁻¹ s⁻¹. The Kd [3] was 10.2 nM, the koff [3] was 0.0011 s⁻¹ and the kon [3] was 108000 M⁻¹ s⁻¹. For the same binder, the Kd [4] was 14.4 nM, the koff [4] was 0.00167 s⁻¹ and the kon [4] was 116000 M⁻¹ s⁻¹.

B3: V-7 (9B8-9A2-7A12) (bispecific antibody)
chain: QVQLVESGGGLVQPGGSLRLSCAASGLTFSYYAMAWFRQAPGKEREFVAAINWNGGNTYNTDSVKGRFTISRDNAKNTVYLQMNSLKPEDTAVYYCAVRYNSASYLVARSSDYNYWGQGTLVTVSSGGGGSQSQLAESGGGLVQSGGSLGLSCVASGFTISRSIMSWYRQPPGKERDWVASIGSAGNTNYVDSVKGRFTISRDVAKNTVYLQMNSLKPEDTAVYYCKTTLAVSFSEYWGQGTQVTVSSGGGGSGGGGSEVQLVESGGGLVQAGGSLRLSCVASGNIFSSNHMGWFRQAPGKQREFIAYITTREITNYADSVKGRFTISRDNTKNTVYLQMNVLKPEDTAVYYCIADQSREIRRSWGQGTQVTVSS
notes: as for B1
Binder B3 has a Kd [1] of 0.0128 nM, a koff [1] of 1.17e-06 s⁻¹ and a kon [1] of 91600 M⁻¹ s⁻¹. The Kd [2] was 0.00135 nM, the koff [2] was 1.25e-07 s⁻¹ and the kon [2] was 93200 M⁻¹ s⁻¹. The Kd [3] was 6.59 nM, the koff [3] was 0.000789 s⁻¹ and the kon [3] was 120000 M⁻¹ s⁻¹. For the same binder, the Kd [4] was 10.2 nM, the koff [4] was 0.00133 s⁻¹ and the kon [4] was 130000 M⁻¹ s⁻¹.

B4: zn5B10.m18 (VHH, not shown: small tags and cut ends)
VHH: EVQLVESGGGLVQPGGSLRLSCSASGTIIGTYTMAWYRQAPGKQREMVAIITPGGGSHHADSVKGRFTISRDNSKSTVYLQMSSLRAEDTAVYYCNAKARWGTTEYWGQGTLVTVSS
notes: Humanized anti-EGFR VHH-His
B4 was tested, and the EC50 (human EGFR on cells) was 1.3 nM and the “Maximum MFI value” (human EGFR on cells) was 71100 MFI.

B5: zn5B10.m16 (VHH, not shown: small tags and cut ends)
VHH: EVQLVESGGGLVQPGGSLRLSCAASGTIIGTYTMAWYRQAPGKQREMVAIITPGGGSHHADSVKGRFTISRDNSKNTLYLQMNSLRAEDTAVYYCNAKARWGTTEYWGQGTMVTVSS
notes: Humanized anti-EGFR VHH-His
B5 was tested, and the EC50 (human EGFR on cells) was 3.13 nM and the “Maximum MFI value” (human EGFR on cells) was 76800 MFI.

B6: zn5B10.m23 (VHH, not shown: small tags and cut ends)
VHH: EVQLVESGGGLVQPGGSLRLDCSASGTIIGTYTMAWYRQAPGKQREMVAIITPGGGSHHADSVKGRFTISRDNSKSTVYLQMSSLRFEDTAVYYCNAKARWGTTEYWGQGTLVTVSS
notes: Humanized anti-EGFR VHH-His
In the case of B6, the EC50 (human EGFR on cells) is reported as 1.94 nM and the “Maximum MFI value” (human EGFR on cells) is reported as 74200 MFI.

B7: zn5B10.m17 (VHH, not shown: small tags and cut ends)
VHH: EVQLVESGGGLVQPGGSLRLSCAASGTIIGTYTMAWYRQAPGKQREMVAIITPGGGSHHADSVKGRFTISRDNSKNTVYLQMNSLRAEDTAVYYCNAKARWGTTEYWGQGTMVTVSS
notes: Humanized anti-EGFR VHH-His
With B7 the EC50 (human EGFR on cells) was 23.2 nM and the “Maximum MFI value” (human EGFR on cells) was 93600 MFI.

B8: zn5B10.m20 (VHH, not shown: small tags and cut ends)
VHH: EVQLVESGGGLVQPGGSLRLSCSASGTIIGTYTMAWYRQAPGKQREMVAIITPGGGSHHADSVKGRFTISRDNSKNTLYLQMSSLRAEDTAVYYCNAKARWGTTEYWGQGTLVTVSS
notes: Humanized anti-EGFR VHH-His; also called hu5B10
For B8, the EC50 (human EGFR on cells) was 0.219 nM and the “Maximum MFI value” (human EGFR on cells) was 59200 MFI.

B9: zn5B10.m22 (VHH, not shown: small tags and cut ends)
VHH: EVQLVESGGGLVQPGGSLRLSCSASGTIIGTYTMAWYRQAPGKQREMVAIITPGGGSHHADSVKGRFTISRDNSKNTLYLQMSSLRFEDTAVYYCNAKARWGTTEYWGQGTLVTVSS
notes: Humanized anti-EGFR VHH-His
In the case of B9, the EC50 (human EGFR on cells) is reported as 1.15 nM and the “Maximum MFI value” (human EGFR on cells) is reported as 86900 MFI.

B10: zn5B10.m21 (VHH, not shown: small tags and cut ends)
VHH: EVQLVESGGGLVQPGGSLRLSCSASGTIIGTYTMAWYRQAPGKQREMVAIITPGGGSHHADSVKGRFTISRDNGKNTLYLQMSSLRAEDTAVYYCNAKARWGTTEYWGQGTLVTVSS
notes: Humanized anti-EGFR VHH-His
For B10, the EC50 (human EGFR on cells) was 0.429 nM and the “Maximum MFI value” (human EGFR on cells) was 58700 MFI.
